Laboratory results from PMC6036645.

Biological target: Leptospira interrogans thermolysin encoded by LIC13322, prothermolysin fragment PepSY-M4 (74 kDa) (Leptospira interrogans)
Experiment: SEC

“Leptospira interrogans thermolysin encoded by LIC13322, prothermolysin fragment PepSY-M4 (74 kDa) (enzyme)” was tested, and the stoichiometry N was 2.
